Target: AHb1 (Arabidopsis thaliana, UniProt O24520)
Assay: size exclusion chromatography

Kd	Binder
1.2 µM	AHb1 (protein, ferrous-oxy heme (O2-bound)) MESEGKIVFTEEQEALVVKSWSVMKKNSAELGLKLFIKIFEIAPTTKKMFSFLRDSPIPAEQNPKLKPHAMSVFVMCCESAVQLRKTGKVTVRETTLKRLGASHSKYGVVDEHFEVAKYALLETIKEAVPEMWSPEMKVAWGQAYDHLVAAIKAEMNLSN
11 µM	AHb1 (protein, ferric heme) MESEGKIVFTEEQEALVVKSWSVMKKNSAELGLKLFIKIFEIAPTTKKMFSFLRDSPIPAEQNPKLKPHAMSVFVMCCESAVQLRKTGKVTVRETTLKRLGASHSKYGVVDEHFEVAKYALLETIKEAVPEMWSPEMKVAWGQAYDHLVAAIKAEMNLSN
